Measurements taken from publication PMC4881466.

Target: Lys69 (UniProt position 69, KALAVKVFKMT)
Experiment: UV-vis
Settings: not stated (100 mM buffers); 100 mM sodium phosphate/citrate (pH 4-6), sodium phosphate (pH 6.2-8.6), sodium carbonate (pH > 8.6); ferrous-deoxy, no exogenous ligand

“Non-symbiotic hemoglobin 2 (AHb2) H66L mutant (Arabidopsis thaliana; H66L)” was tested, and the pKa was 10 ± 0.2.
